From article PMC2033583, “Temperature sensitivity for conformation is an intrinsic property of wild-type p53” come the findings set out here.

The target of this data set is p53 (murine wild-type) (mouse, UniProt P02340 1-390). The experiment in a line: EMSA; 1,10-phenanthroline, 20 min at 30 C; PAb 421; at least partially resistant to chelator; EMSA on 4% polyacrylamide gels with PAb 421, reticulocyte lysate p53 pre-exposed to OP 20 min at 30 or 37 C; binding buffer, salt and pH not given (as in Hainaut and Milner 1993b). The following applies: protein: ivt; chain copies: 4; label: 32P. (A gel shift assay detects complexes by their altered migration in electrophoresis.)
Sequence of p53 (murine wild-type) (P02340 whole entry): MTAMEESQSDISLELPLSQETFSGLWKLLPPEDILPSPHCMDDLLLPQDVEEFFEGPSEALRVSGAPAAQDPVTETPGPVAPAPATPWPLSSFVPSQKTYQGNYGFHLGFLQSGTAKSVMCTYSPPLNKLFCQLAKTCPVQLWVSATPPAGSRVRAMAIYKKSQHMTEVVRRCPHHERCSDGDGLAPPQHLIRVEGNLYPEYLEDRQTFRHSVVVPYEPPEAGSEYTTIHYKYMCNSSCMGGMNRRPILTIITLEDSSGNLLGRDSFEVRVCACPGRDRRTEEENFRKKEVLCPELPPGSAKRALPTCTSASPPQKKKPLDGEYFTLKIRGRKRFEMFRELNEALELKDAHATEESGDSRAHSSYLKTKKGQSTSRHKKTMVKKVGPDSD

B1: p53 CON (dsDNA)
DNA 1: GGGCATGTCCGGGCATGTCC
DNA 2: GGACATGCCCGGACATGCCC
Consider B1, for which the binding result is listed as “binds”.
